{"source": "paper PMC6628648", "about": "“Enabling microbial syringol conversion through structure-guided protein engineering” (Proceedings of the National Academy of Sciences of the …, 2019)", "key": {"COc1cccc(OC)c1O": {"system": "COc1cccc(OC)c1O", "assay": "purified protein, by the assay type", "conditions": "pH 7.5; 25.0 °C"}, "COc1ccccc1O": {"system": "COc1ccccc1O", "assay": "purified protein, by the assay type", "conditions": "pH 7.5; 25.0 °C"}}}
{"substance": "GcoA-F169A (Amycolatopsis sp. ATCC 39116; F169A)", "values": [{"measurement": "Km", "setting": "COc1cccc(OC)c1O", "value": "10 ± 1", "unit": "µM"}, {"measurement": "kcat", "setting": "COc1cccc(OC)c1O", "value": "5.9 ± 0.01", "unit": "s⁻¹"}, {"measurement": "kcat/Km", "setting": "COc1cccc(OC)c1O", "value": "600000 ± 90000", "unit": "M⁻¹ s⁻¹"}, {"measurement": "Km", "setting": "COc1ccccc1O", "value": "40 ± 6", "unit": "µM"}, {"measurement": "kcat", "setting": "COc1ccccc1O", "value": "11 ± 0.03", "unit": "s⁻¹"}, {"measurement": "kcat/Km", "setting": "COc1ccccc1O", "value": "290000 ± 40000", "unit": "M⁻¹ s⁻¹"}]}
